Residue numbers refer to the chain shown, from its start. Names and notes keep the numbering of the source.
What was measured:
[1] = target: T1, LRP6-Fc (R&D Systems, catalog No: 1505-LR) (human, UniProt O75581 20-1370); experiment: ELISA on coated LRP6-Fc, detection with pentaHis-HRP
T1 construct: Purchased reagent; also called LRP6 protein; 360 KD homodimer antigen LRP6-Fc; not shown: Fc part of the purchased fusion
T1 sequence (looked up): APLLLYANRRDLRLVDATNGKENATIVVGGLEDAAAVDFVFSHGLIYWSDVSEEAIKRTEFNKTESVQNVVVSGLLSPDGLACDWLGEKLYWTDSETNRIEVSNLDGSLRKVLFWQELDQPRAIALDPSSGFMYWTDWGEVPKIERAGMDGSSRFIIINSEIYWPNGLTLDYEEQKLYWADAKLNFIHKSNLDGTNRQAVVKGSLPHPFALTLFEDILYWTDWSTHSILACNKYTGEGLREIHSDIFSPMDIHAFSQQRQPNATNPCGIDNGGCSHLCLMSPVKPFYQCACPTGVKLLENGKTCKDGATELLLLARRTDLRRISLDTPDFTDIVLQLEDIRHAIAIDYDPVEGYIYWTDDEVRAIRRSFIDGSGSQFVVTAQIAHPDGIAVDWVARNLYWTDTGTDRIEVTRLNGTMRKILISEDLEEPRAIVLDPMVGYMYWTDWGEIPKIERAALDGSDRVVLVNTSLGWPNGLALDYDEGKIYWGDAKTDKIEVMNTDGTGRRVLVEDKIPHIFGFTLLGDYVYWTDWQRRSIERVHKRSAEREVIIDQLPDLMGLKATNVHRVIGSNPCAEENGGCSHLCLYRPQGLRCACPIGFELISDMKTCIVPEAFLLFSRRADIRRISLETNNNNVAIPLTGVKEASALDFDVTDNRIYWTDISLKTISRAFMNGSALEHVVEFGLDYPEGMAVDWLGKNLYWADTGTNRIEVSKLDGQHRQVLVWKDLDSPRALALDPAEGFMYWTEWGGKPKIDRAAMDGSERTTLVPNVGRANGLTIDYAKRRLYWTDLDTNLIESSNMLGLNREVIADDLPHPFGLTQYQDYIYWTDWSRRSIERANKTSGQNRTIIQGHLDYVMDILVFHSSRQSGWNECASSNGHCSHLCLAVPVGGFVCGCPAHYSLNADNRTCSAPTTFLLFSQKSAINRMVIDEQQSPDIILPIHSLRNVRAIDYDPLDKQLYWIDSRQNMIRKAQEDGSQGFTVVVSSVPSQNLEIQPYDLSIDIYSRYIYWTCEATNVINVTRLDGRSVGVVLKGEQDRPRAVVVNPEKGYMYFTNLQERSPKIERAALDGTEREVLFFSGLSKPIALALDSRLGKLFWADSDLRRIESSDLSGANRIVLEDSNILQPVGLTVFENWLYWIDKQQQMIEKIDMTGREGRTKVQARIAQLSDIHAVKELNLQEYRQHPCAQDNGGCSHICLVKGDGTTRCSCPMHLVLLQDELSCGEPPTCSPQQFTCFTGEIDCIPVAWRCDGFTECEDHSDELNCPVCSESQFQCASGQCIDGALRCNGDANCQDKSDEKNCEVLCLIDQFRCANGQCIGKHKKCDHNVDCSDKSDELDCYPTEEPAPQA
Protocol: (§1) Binding EC₅₀ of scFvs against LRP6 protein was measured by ELISA. Maxisorp plate was coated with LRP6-Fc (R&D Systems, catalog No: 1505-LR) at 3 μg/ml at 4° C. overnight. The plate was blocked with 50 μl of 2% BSA for one hour, and washed five times with the wash solution. The samples were diluted with 1% BSA accordingly. The plate was incubated at RT for 1 h, and washed for 3 times. Detection was done by adding 50 μl pentaHis-HRP (Qiagen Mat. No. 1014992) at 1:2000 dilution in 1% BSA, incubated at RT for 1 h, and washed 3 times. 50 μl of substrate reagent A plus B (R&D systems) was added, then incubated for 5-20 min depending on the color. The reaction was stopped by adding 25 μl of the stop solution, followed by plate reading at 450 nm.
Affinity analysis ELISA EC₅₀ was carried out for both scFv08168 and scFv06475 wild type and variants.

human LRP6 = human LRP6 (human, UniProt O75581 20-1613); experiment: cell-based or functional assay
[2] = target: T1, LRP6-Fc (R&D Systems, catalog No: …); experiment: Proteon XPR36, scFv captured by anti-His IgG, LRP6-Fc as analyte, bivalent analyte model
Protocol: Kinetics experiments were performed using BioRad's Proteon XPR36 biosensor. All experiments were performed at room temperature using PBST (phosphate buffered saline with 0.05% Tween-20) as the running buffer. All of the six vertical channels on a GLM chip were activated for 5 min at a flow rate of 30 μl/min using freshly prepared mixture of EDC (400 mM) and sNHS (100 mM). Anti-His mouse IgG1 (R&D systems, catalog No: MAB050) was diluted to 20 μg/ml in 10 mM sodium acetate, PH 5.0 and coupled to the chip for 5 min along separate vertical channels at a flow rate of 30 μl/min. 1 M ethanolamine was then injected for 5 min at 30 μl/min to deactivate the un-reacted sNHS groups. 2 μg/ml MOR08168 scFv wild type or 2 μg/ml MOR08168D1 mutant was then immobilized on different vertical channels for 15 sec at 100 μl/min followed by two 1 min injection of the running buffer at 30 μl/min in the horizontal direction. The sixth vertical channel was used as the channel reference and no ligand was immobilized on this channel. […] Association was monitored for 5 min and dissociation was monitored for 20 min. Buffer was injected in the sixth channel to serve as a row reference for real time baseline drifting correction. […] Kinetics analysis on the Proteon was performed in Proteon Manager v.2.1.1. […]

human FcRn = human FcRn (human, UniProt P55899 24-297; P61769 21-119, limits assumed); experiment: Biacore, pH 6.0; human FcRn at pH 6.0, Biacore; IgG-scFv format (only low level binding at pH 7.4)
LRP6 PD3/4 [3] = target: T2, LRP6 PD3/4 (human, UniProt O75581 631-1246); experiment: Biacore T-100 SPR, antibody captured by anti-human IgG Fc on a CM4 chip, PD3/4 injected; N = 3
T2 construct: range 631-1246; Recombinant soluble fragment; also called Propeller Domains 3-4 of LRP6; recombinant LRP6 PD3/4
T2 sequence (looked up): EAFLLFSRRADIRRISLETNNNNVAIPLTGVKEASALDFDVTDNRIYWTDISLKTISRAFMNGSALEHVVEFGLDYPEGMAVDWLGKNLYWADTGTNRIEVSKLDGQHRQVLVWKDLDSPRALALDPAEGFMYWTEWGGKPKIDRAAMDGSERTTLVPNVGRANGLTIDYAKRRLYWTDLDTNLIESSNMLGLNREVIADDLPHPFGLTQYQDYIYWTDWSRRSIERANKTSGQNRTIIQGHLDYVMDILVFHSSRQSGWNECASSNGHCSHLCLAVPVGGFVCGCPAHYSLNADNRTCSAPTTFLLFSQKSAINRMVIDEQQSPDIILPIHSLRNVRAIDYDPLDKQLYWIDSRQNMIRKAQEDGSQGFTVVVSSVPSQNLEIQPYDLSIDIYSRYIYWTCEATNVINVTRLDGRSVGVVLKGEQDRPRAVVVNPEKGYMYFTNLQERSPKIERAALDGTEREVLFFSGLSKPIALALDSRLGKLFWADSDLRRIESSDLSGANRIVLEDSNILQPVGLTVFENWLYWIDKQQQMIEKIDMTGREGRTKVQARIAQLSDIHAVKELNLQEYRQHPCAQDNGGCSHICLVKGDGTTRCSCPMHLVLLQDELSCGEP
Protocol: (§2) The carboxymethyl dextran surface was activated with a 7 min injection of a 1:1 ratio of 0.4 M EDC (1-Ethyl-3-[3-dimethylaminopropyl]carbodiimide hydrochloride) and 0.1 M NHS(N-hydroxysuccinimide). […] PD1/2 and PD3/4 were prepared as two fold concentration series starting at 50 nM, and injected at 30 μl/min for 1 min. […] The surfaces were then regenerated two times with 10 mM glycine (pH 2.2). […] PD3/4 at a saturating concentration of 100 nM was then flowed over the surface at a flow rate of 30 μl/min for 30 min. A saturating concentration of 100 nM PD1/2 was injected immediately after the PD3/4. The dissociation constant (KD), association (kₒₙ), and dissociation (koff) rates were calculated from the baseline subtracted corrected binding curves using the BIAevaluation software (GE Healthcare).

cynoFcRn = target: T3, cynoFcRn (cynomolgus monkey, UniProt Q8SPV9); experiment: Biacore, cynoFcRn at pH 6.0
T3 construct: also called cynomolgus FcRn

[4] = target: T1, LRP6-Fc (R&D Systems, catalog No: …); experiment: ELISA on coated LRP6-Fc, pentaHis-HRP detection
Protocol: as §1
For scFv06475, there were two mutations affecting the activity as detected by ELISA and Proteon kinetics analysis.

LRP6 PD3/4 [5] = target: T2, LRP6 PD3/4; experiment: Biacore T-100 SPR, antibody captured by anti-human IgG Fc on a CM4 chip, PD3/4 injected; N = 4
Protocol: as §2

Chain of human FcRn (P55899 24-297 limits assumed, form in doubt, chain 1 of 2): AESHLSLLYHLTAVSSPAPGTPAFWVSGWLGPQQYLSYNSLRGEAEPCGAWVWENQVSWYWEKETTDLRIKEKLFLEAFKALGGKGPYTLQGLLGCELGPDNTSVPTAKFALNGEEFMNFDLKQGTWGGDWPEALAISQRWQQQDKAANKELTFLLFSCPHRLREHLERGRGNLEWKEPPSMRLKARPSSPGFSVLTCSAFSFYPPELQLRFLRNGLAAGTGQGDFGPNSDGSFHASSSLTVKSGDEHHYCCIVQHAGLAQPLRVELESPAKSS
Chain of human FcRn (P61769 21-119 limits assumed, form in doubt, chain 2 of 2): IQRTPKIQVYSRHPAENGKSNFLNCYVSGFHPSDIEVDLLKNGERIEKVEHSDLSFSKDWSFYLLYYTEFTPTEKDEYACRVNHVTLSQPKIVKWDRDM

B1: scFv08168 wild type (scFv, V domains shown)
VH: QVQLVESGGGLVQPGGSLRLSCAASGFTFSDYVINWVRQAPGKGLEWVSGISWSGVNTHYADSVKGRFTISRDNSKNTLYLQMNSLRAEDTAVYYCARLGATANNIRYKFMDVWGQGTLVTVSS
VL: DIELTQPPSVSVAPGQTARISCSGDSLRNKVYWYQQKPGQAPVLVIYKNNRPSGIPERFSGSNSGNTATLTISGTQAEDEADYYCQSYDGQKSLVFGGGTKLTVL
notes: One polypeptide (scFv with His tag); also called MOR08168 scFv wild type
- EC50 [1]: 2.04 nM
- IC50 by STF assay for Wnt1 inhibition (human LRP6): 7.41 nM
- Kd [2]: 3.82 nM

B2: scFv08168 D1 (VH:I34M + VH:S49A) (scFv, V domains shown)
VH: B1 VH with I34M, S49A
VL: B1 VL
notes: Double mutant of scFv08168 (His tag); also called MOR08168D1 mutant; double mutant D1
- EC50 [1]: 1.61 nM
- Kd [2]: 2.55 nM

B3: scFv08168 VH:I34M (scFv, V domains shown)
VH: B1 VH with I34M
VL: B1 VL
notes: Point mutant of scFv08168 (His tag)
- EC50 [1]: 0.98 nM

B4: anti-LRP6 MOR08168hIgG1LALA 6475 scfv (bispecific antibody)
heavy: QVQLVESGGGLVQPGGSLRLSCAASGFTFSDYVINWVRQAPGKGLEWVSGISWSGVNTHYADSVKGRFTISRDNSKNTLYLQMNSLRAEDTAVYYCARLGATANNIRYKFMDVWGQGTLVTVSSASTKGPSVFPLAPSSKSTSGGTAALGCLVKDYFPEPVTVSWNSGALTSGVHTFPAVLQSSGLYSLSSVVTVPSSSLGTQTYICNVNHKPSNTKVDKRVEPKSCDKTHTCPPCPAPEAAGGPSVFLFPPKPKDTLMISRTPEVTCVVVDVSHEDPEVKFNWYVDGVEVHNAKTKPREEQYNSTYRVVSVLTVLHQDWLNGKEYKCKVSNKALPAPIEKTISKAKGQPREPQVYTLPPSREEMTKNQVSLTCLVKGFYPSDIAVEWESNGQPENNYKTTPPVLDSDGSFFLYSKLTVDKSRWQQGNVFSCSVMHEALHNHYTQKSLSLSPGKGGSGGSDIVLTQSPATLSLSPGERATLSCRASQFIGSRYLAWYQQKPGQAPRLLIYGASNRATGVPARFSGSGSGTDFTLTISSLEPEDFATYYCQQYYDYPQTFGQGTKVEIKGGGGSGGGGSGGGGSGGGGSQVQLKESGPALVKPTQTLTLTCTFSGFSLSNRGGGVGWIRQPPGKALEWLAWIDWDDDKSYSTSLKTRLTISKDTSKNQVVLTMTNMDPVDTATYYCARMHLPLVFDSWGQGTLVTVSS
light: DIELTQPPSVSVAPGQTARISCSGDSLRNKVYWYQQKPGQAPVLVIYKNNRPSGIPERFSGSNSGNTATLTISGTQAEDEADYYCQSYDGQKSLVFGGGTKLTVLGQPKAAPSVTLFPPSSEELQANKATLVCLISDFYPGAVTVAWKADSSPVKAGVETTTPSKQSNNKYAASSYLSLTPEQWKSHRSYSCQVTHEGSTVEKTVAPTECS
notes: Biparatopic: MOR08168 IgG1 LALA with MOR06475 scFv (VL-(Gly4Ser)4-VH) fused by a (GlyGlySer)2 linker to the C-terminus of CH3; also called Biparatopic anti-LRP6 IgG scFv
- Kd (human FcRn): 21 nM
- Kd (LRP6 PD3/4 [3]): 1.93 nM
- koff (LRP6 PD3/4 [3]): 0.000314 s⁻¹
- kon (LRP6 PD3/4 [3]): 211000 M⁻¹ s⁻¹
- Kd (cynoFcRn): 120 nM

B5: scFv06475 VH:G34V (scFv, name in Kabat numbering, V domains shown)
VH: QVQLKESGPALVKPTQTLTLTCTFSGFSLSNRGVGVGWIRQPPGKALEWLAWIDWDDDKSYSTSLKTRLTISKDTSKNQVVLTMTNMDPVDTATYYCARMHLPLVFDSWGQGTLVTVSS
VL: DIVLTQSPATLSLSPGERATLSCRASQFIGSRYLAWYQQKPGQAPRLLIYGASNRATGVPARFSGSGSGTDFTLTISSLEPEDFATYYCQQYYDYPQTFGQGTKVEIK
notes: Point mutant of scFv06475 (His tag)
- EC50 [1]: 27.4 nM
- EC50 [4]: 27 nM

B6: MOR06475 IgG (antibody, V domains shown)
VH: B5 VH with V34G
VL: DIVLTQSPATLSLSPGERATLSCRASQFIGSRYLAWYQQKPGQAPRLLIYGASNRATGVPARFSGSGSGTDFTLTISSLEPEDFATYYCQQYYDYPQTFGQGTKVEIKR
notes: also called MOR6475; MOR6475 (propeller 3 antibody)
- Kd (LRP6 PD3/4 [5]): 1.13 nM
- koff (LRP6 PD3/4 [5]): 0.000217 s⁻¹
- kon (LRP6 PD3/4 [5]): 201000 M⁻¹ s⁻¹

B7: scFv06475 VH:I37F (scFv, name in Kabat numbering, V domains shown)
VH: B5 VH with V34G, I39F
VL: B5 VL
notes: as for B5
- EC50 [4]: 4.3 nM

— patent US20130058934A1 (Novartis, published 2013)
